Where no end group is shown, it is not given here. [ ]: non-standard residue; d: D form. Arg(Me2s) = CN=C(NC)NCCC[C@H](N)C(=O)O
How the values were obtained:
[1] = biological target: Krimper eTud1 (residues 272-512) (Drosophila melanogaster) (UniProt A1ZAC4); assay: ITC; Malvern PEAQ ITC; 50 mM NaCl, 20 mM HEPES pH 7.5, 2 mM β-mercaptoethanol; Krimper Tudor domain with peptides
Krimper eTud1ΔC = biological target: T1, Krimper eTud1ΔC (Drosophila melanogaster, UniProt A1ZAC4); assay type: binding; details: ITC, Fig. 1f, unmethylated Ago3-2 peptide
T1 construct: Krimper contains two extended Tudor domains: eTud1(272-512) and eTud2 (562-746); made in house
Procedure: All ITC was performed using the Malvern PEAQ ITC instrument (Malvern) in a buffer of 50 mM NaCl, 20 mM HEPES pH 7.5, and 2 mM β-mercaptoethanol. Data analysis was performed using the Malvern data analysis software and Origin 7.0.

[2] = biological target: T2, Krimper eTud1 (residues 272-512) (Drosophila melanogaster, UniProt A1ZAC4); assay: ITC analysis of Krimper eTud1 with Ago3 or Aub peptides; assay type: binding; details: Fig. 1f
T2 construct: Krimper eTud1 (residues 272-512) was cloned into a self-modified pSumo vector; 10xHis (N, cleaved yes); yeast SUMO (N, cleaved yes); made in house; host or cells: E. coli BL21(DE3) Rosetta
T2 sequence (A1ZAC4 272-512): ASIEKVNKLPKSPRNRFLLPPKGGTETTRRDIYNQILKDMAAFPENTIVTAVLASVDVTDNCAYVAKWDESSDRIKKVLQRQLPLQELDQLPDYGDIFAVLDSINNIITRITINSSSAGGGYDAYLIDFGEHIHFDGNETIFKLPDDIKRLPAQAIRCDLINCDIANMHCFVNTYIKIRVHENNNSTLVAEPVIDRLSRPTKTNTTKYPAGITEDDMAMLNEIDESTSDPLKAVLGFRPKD
Text: However, the region of Krimper responsible for Ago3 binding remained unknown. To study the Ago3-Krimper interaction, we expressed and purified eTud1 and eTud2 domains of Krimper (Fig. 1c) and tested their binding to peptides derived from the N-terminal Ago3 sequence using isothermal titration calorimetry (ITC) (Fig. 1f and Supplementary Fig. 1a). […] Thus, the two Tudor domains of Krimper have different binding preferences ensuring that Aub and Ago3 can bind Krimper simultaneously without direct competition for a binding site.
Krimper eTud1 (residues 272-512) was cloned into a self-modified pSumo vector with 10×His tag followed by a yeast sumo sequence. The plasmid was transformed into E. coli strain BL21(DE3) Rosseta and cultured at 37 °C in LB medium. The protein expression was induced by adding IPTG to a final concentration of 0.2 mM when the OD600 reached 0.7, and the cells were cooled to 16 °C. The recombinant expressed protein was purified using a HisTrap column (GE Healthcare). The […] plus yeast sumo tag was removed by ulp1 protease digestion followed by a second step HisTrap column (GE Healthcare). The target protein was further purified using MonoQ and Superdex G75 columns (GE Healthcare).
All ITC was performed using the Malvern PEAQ ITC instrument (Malvern) in a buffer of 50 mM NaCl, 20 mM HEPES pH 7.5, and 2 mM β-mercaptoethanol. […]

[3] = biological target: T3, Krimper eTud2 (residues 562-746) (Drosophila melanogaster, UniProt A1ZAC4 562-746); assay: ITC; R72me2
T3 chain: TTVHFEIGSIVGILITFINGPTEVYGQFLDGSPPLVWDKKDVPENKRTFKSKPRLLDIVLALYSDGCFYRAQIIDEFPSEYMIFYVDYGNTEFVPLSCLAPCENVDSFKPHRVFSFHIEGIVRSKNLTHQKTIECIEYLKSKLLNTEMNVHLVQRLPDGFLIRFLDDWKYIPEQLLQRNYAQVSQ

[4] = biological target: T3, Krimper eTud2 (residues 562-746); assay: ITC; R68me2
[5] = biological target: T3, Krimper eTud2 (residues 562-746); assay: ITC; R15me2
[6] = biological target: T3, Krimper eTud2 (residues 562-746); assay: ITC; R70me2

Molecule: Ago3-2 peptide (aa residues 63-78 of Ago3) (from UniProt Q7PLK0 63-78)
- Kd [1]: 62.8 µM

Molecule: NISVGRGRARLIDTLK [Ago3-2]
- binding affinity of eTud1 ΔC compared with eTud1 (in words) (Krimper eTud1ΔC): higher binding affinity

Molecule: H-NPVIARGRGRGRK-OH [Aub-1, unmethylated peptide from the N-terminal RG-repeat region of Aub used for ITC and structural analysis]
- binding to eTud1 (in words) [2]: does not detectably interact

B1: Ago3-2 peptide methylated at R72 (peptide)
peptide: NISVGRGRA[Arg(Me2s)]LIDTLK
- Kd [3]: 34.5 µM

B2: Ago3-2 peptide methylated at R68 (peptide)
peptide: NISVG[Arg(Me2s)]GRARLIDTLK
- Kd [4]: 6.67 µM

B3: Aub-R15me2 peptide (peptide)
chain: NPVIARGRGRGRK
modifications: also: symmetric dimethylarginine at R15
- Kd [5]: 8.26 µM

B4: Ago3-2 peptide methylated at R70 (peptide)
peptide: NISVGRG[Arg(Me2s)]ARLIDTLK
- Kd [6]: 2.2 µM

From paper PMC8249470, “Binding of guide piRNA triggers methylation of the unstructured N-terminal region of Aub leading to assembly of the piRNA amplification complex” (Nature Communications, 2021)
